According to PMC2217592:

What was measured:
[1] = target: TIRC7 (human (endogenous in PBL)) (UniProt Q13488)
[2] = target: TIRC7 (human (endogenous in PBL)) (UniProt Q13488); remark: listed apart in the source

Chain of UniProt Q13488 (Q13488 217-830): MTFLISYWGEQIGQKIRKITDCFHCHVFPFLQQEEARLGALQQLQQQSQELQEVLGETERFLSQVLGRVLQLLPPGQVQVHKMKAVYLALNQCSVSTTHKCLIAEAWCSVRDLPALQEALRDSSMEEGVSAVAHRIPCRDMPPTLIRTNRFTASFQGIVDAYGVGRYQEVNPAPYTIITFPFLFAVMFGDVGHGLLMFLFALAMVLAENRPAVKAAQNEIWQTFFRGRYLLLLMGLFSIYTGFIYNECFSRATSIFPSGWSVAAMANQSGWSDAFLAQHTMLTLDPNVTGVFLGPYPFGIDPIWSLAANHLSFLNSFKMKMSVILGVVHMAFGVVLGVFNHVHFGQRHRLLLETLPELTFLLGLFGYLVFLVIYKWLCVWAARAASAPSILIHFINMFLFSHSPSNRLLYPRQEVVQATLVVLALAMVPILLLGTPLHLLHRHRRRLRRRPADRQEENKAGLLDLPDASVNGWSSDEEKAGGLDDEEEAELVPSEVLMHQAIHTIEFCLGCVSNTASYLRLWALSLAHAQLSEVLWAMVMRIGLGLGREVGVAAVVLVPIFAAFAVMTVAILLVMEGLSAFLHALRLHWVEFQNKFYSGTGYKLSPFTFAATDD

cells in G0/G1 cell cycle phase, human PBL activated with anti-CD3/CD28 48 h with sHLA-DRα2 50 µg/ml (propidium iodine, flow cytometry) [1]: 89% | subdiploid (apoptotic) cells 72 h after incubation of activated human PBL with sHLA-DRα2 [1]: 46.4% | apoptosis (Annexin V) of human CD4+ cells stimulated 72 h with anti-CD3/CD28, sHLA-DRα2 50 µg/ml [2]: 51% | apoptosis (Annexin V) of human CD8+ cells stimulated 72 h with anti-CD3/CD28, sHLA-DRα2 50 µg/ml [2]: 54%
Substance: soluble HLA-DR alpha 2 fusion protein (entire human HLA-DR alpha 2 domain linked to an IgG1 Fc protein) (Fc fusion)
